Holding throughout (assay): ITC
Experiment [1] concerns the target S.c. Grx3 (residues 36-285, Trx-like and Grx-like domains) (S. cerevisiae).
The target is the same in experiment [2]. This is another data set of the same source.
Experiment [3] has as its target T1, H.s. GLRX5 lacking the first 31 amino acids (Δ1-31) (human, UniProt Q86SX6 32-157).
T1 sequence (looked up): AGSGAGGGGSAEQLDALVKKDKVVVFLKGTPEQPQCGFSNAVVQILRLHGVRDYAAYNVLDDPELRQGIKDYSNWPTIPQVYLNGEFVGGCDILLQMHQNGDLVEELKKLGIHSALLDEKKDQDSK

Like-named read-outs stand apart in the source and are kept apart here.

B1: human BOLA3 (residues 25-107, lacking the mitochondrial targeting sequence) (natural protein, UniProt Q53S33 25-107, looked up)
chain: MFATQTEGELRVTQILKEKFPRATAIKVTDISGGCGAMYEIKIESEEFKEKRTVQQHQMVNQALKEEIKEMHGLRIFTSVPKR
Turning to B1, in experiment [1], the Kd worked out at 6.7 µM and the stoichiometry N is 0.94. Also, in experiment [2], the Ka is 150000 M⁻¹, the dH is -3290 J/mol and the stoichiometry N is 0.98. For the same molecule, in experiment [3], the Ka worked out at 120000 M⁻¹, the dH was -2170 ± 143 J/mol and the “stoichiometry N” value came to 1.02 ± 0.05.

These data come from paper PMC6146392 (Metallomics : integrated biometal science, 2018).
